Patent US20070299013

Test system: pentapeptide DYDYQ (Asp695-Tyr696-Asp697-Tyr698-Gln699 of human factor Va heavy chain)

Substance: human thrombin
- activation of factor V by thrombin (cleavage at Arg709), SDS-PAGE and immunoblot, thrombin preincubated with 100 µM peptide: the pentapeptide is a potent inhibitor of factor V activation by thrombin
